Starred links: 1 amine or outer side, 2 acyl side, 3 side chain; linkers in the order of their positions; H or OH if unused. Non-standard residues stand in square brackets, D forms with d. Groups on a side chain read outwards from the residue. No end group written: not given here. *: point of attachment. C18 diacid = O=C(O)CCCCCCCCCCCCCCCCC(=O)*; γGlu = O=C(O)[C@H](CCC(=O)[*:2])N[*:1]; Palmitoyl = CCCCCCCCCCCCCCCC(=O)*; AEEA = NCCOCCOCC(=O)O; Aib = CC(C)(N)C(=O)O
Biological target: human corticotropin-releasing factor 2α (CRF2 α receptor) (human), Q13324
Sequence (Q13324 20-411): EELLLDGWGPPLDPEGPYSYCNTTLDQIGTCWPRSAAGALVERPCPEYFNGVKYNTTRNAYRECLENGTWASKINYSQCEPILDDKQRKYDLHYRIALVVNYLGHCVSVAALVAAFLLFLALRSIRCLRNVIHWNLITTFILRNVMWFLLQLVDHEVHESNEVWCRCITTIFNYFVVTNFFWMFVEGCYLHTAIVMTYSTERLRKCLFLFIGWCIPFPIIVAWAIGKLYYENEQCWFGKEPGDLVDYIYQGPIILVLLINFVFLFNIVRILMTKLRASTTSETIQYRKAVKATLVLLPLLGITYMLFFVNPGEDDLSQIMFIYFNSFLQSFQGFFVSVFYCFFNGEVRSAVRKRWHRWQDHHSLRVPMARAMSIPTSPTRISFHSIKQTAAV
Test: cell-based or functional assay

B1: SEQ ID NO: 127 (peptide)
peptide: IVLSLD[dV]PIKLK([AEEA-AEEA-γGlu-C18 diacid])QILLEQAKQK[Aib]QREQAEKNKRILERV-NH2
modifications: N-terminus assumed
SMILES: CC[C@H](C)[C@H](N)C(=O)N[C@H](C(=O)N[C@@H](CC(C)C)C(=O)N[C@@H](CO)C(=O)N[C@@H](CC(C)C)C(=O)N[C@@H](CC(=O)O)C(=O)N[C@@H](C(=O)N1CCC[C@H]1C(=O)N[C@H](C(=O)N[C@@H](CCCCN)C(=O)N[C@@H](CC(C)C)C(=O)N[C@@H](CCCCNC(=O)COCCOCCNC(=O)COCCOCCNC(=O)CC[C@H](NC(=O)CCCCCCCCCCCCCCCCC(=O)O)C(=O)O)C(=O)N[C@@H](CCC(N)=O)C(=O)N[C@H](C(=O)N[C@@H](CC(C)C)C(=O)N[C@@H](CC(C)C)C(=O)N[C@@H](CCC(=O)O)C(=O)N[C@@H](CCC(N)=O)C(=O)N[C@@H](C)C(=O)N[C@@H](CCCCN)C(=O)N[C@@H](CCC(N)=O)C(=O)N[C@@H](CCCCN)C(=O)NC(C)(C)C(=O)N[C@@H](CCC(N)=O)C(=O)N[C@@H](CCCNC(=N)N)C(=O)N[C@@H](CCC(=O)O)C(=O)N[C@@H](CCC(N)=O)C(=O)N[C@@H](C)C(=O)N[C@@H](CCC(=O)O)C(=O)N[C@@H](CCCCN)C(=O)N[C@@H](CC(N)=O)C(=O)N[C@@H](CCCCN)C(=O)N[C@@H](CCCNC(=N)N)C(=O)N[C@H](C(=O)N[C@@H](CC(C)C)C(=O)N[C@@H](CCC(=O)O)C(=O)N[C@@H](CCCNC(=N)N)C(=O)N[C@H](C(N)=O)C(C)C)[C@@H](C)CC)[C@@H](C)CC)[C@@H](C)CC)C(C)C)C(C)C
EC50 [nM], 0% HSA: 0.16 nM | EC50 [nM], 0.1% HSA: 5.14 nM

B2: SEQ ID NO: 124 (peptide)
peptide: IVLSLDVPIKLK([AEEA-AEEA-γGlu-C18 diacid])QILLKQARQK[Aib]QRAQAEKNKRILERV-NH2
modifications: N-terminus assumed
SMILES: CC[C@H](C)[C@H](N)C(=O)N[C@H](C(=O)N[C@@H](CC(C)C)C(=O)N[C@@H](CO)C(=O)N[C@@H](CC(C)C)C(=O)N[C@@H](CC(=O)O)C(=O)N[C@H](C(=O)N1CCC[C@H]1C(=O)N[C@H](C(=O)N[C@@H](CCCCN)C(=O)N[C@@H](CC(C)C)C(=O)N[C@@H](CCCCNC(=O)COCCOCCNC(=O)COCCOCCNC(=O)CC[C@H](NC(=O)CCCCCCCCCCCCCCCCC(=O)O)C(=O)O)C(=O)N[C@@H](CCC(N)=O)C(=O)N[C@H](C(=O)N[C@@H](CC(C)C)C(=O)N[C@@H](CC(C)C)C(=O)N[C@@H](CCCCN)C(=O)N[C@@H](CCC(N)=O)C(=O)N[C@@H](C)C(=O)N[C@@H](CCCNC(=N)N)C(=O)N[C@@H](CCC(N)=O)C(=O)N[C@@H](CCCCN)C(=O)NC(C)(C)C(=O)N[C@@H](CCC(N)=O)C(=O)N[C@@H](CCCNC(=N)N)C(=O)N[C@@H](C)C(=O)N[C@@H](CCC(N)=O)C(=O)N[C@@H](C)C(=O)N[C@@H](CCC(=O)O)C(=O)N[C@@H](CCCCN)C(=O)N[C@@H](CC(N)=O)C(=O)N[C@@H](CCCCN)C(=O)N[C@@H](CCCNC(=N)N)C(=O)N[C@H](C(=O)N[C@@H](CC(C)C)C(=O)N[C@@H](CCC(=O)O)C(=O)N[C@@H](CCCNC(=N)N)C(=O)N[C@H](C(N)=O)C(C)C)[C@@H](C)CC)[C@@H](C)CC)[C@@H](C)CC)C(C)C)C(C)C
EC50 [nM], 0% HSA: 0.11 nM | EC50 [nM], 0.1% HSA: 4.37 nM

B3: SEQ ID NO: 123 (peptide)
peptide: IVLSLDVPIKLK([AEEA-AEEA-γGlu-C18 diacid])QILLEQARQK[Aib]QRAQAEKNKRILERV-NH2
modifications: N-terminus assumed
SMILES: CC[C@H](C)[C@H](N)C(=O)N[C@H](C(=O)N[C@@H](CC(C)C)C(=O)N[C@@H](CO)C(=O)N[C@@H](CC(C)C)C(=O)N[C@@H](CC(=O)O)C(=O)N[C@H](C(=O)N1CCC[C@H]1C(=O)N[C@H](C(=O)N[C@@H](CCCCN)C(=O)N[C@@H](CC(C)C)C(=O)N[C@@H](CCCCNC(=O)COCCOCCNC(=O)COCCOCCNC(=O)CC[C@H](NC(=O)CCCCCCCCCCCCCCCCC(=O)O)C(=O)O)C(=O)N[C@@H](CCC(N)=O)C(=O)N[C@H](C(=O)N[C@@H](CC(C)C)C(=O)N[C@@H](CC(C)C)C(=O)N[C@@H](CCC(=O)O)C(=O)N[C@@H](CCC(N)=O)C(=O)N[C@@H](C)C(=O)N[C@@H](CCCNC(=N)N)C(=O)N[C@@H](CCC(N)=O)C(=O)N[C@@H](CCCCN)C(=O)NC(C)(C)C(=O)N[C@@H](CCC(N)=O)C(=O)N[C@@H](CCCNC(=N)N)C(=O)N[C@@H](C)C(=O)N[C@@H](CCC(N)=O)C(=O)N[C@@H](C)C(=O)N[C@@H](CCC(=O)O)C(=O)N[C@@H](CCCCN)C(=O)N[C@@H](CC(N)=O)C(=O)N[C@@H](CCCCN)C(=O)N[C@@H](CCCNC(=N)N)C(=O)N[C@H](C(=O)N[C@@H](CC(C)C)C(=O)N[C@@H](CCC(=O)O)C(=O)N[C@@H](CCCNC(=N)N)C(=O)N[C@H](C(N)=O)C(C)C)[C@@H](C)CC)[C@@H](C)CC)[C@@H](C)CC)C(C)C)C(C)C
EC50 [nM], 0% HSA: 0.33 nM | EC50 [nM], 0.1% HSA: 9.74 nM

B4: SEQ ID NO: 126 (peptide)
peptide: IVLSLD[dV]PIKLK([AEEA-AEEA-γGlu-C18 diacid])QILLEQAKQK[Aib]QRAQAEKNKRILERV-NH2
modifications: N-terminus assumed
SMILES: CC[C@H](C)[C@H](N)C(=O)N[C@H](C(=O)N[C@@H](CC(C)C)C(=O)N[C@@H](CO)C(=O)N[C@@H](CC(C)C)C(=O)N[C@@H](CC(=O)O)C(=O)N[C@@H](C(=O)N1CCC[C@H]1C(=O)N[C@H](C(=O)N[C@@H](CCCCN)C(=O)N[C@@H](CC(C)C)C(=O)N[C@@H](CCCCNC(=O)COCCOCCNC(=O)COCCOCCNC(=O)CC[C@H](NC(=O)CCCCCCCCCCCCCCCCC(=O)O)C(=O)O)C(=O)N[C@@H](CCC(N)=O)C(=O)N[C@H](C(=O)N[C@@H](CC(C)C)C(=O)N[C@@H](CC(C)C)C(=O)N[C@@H](CCC(=O)O)C(=O)N[C@@H](CCC(N)=O)C(=O)N[C@@H](C)C(=O)N[C@@H](CCCCN)C(=O)N[C@@H](CCC(N)=O)C(=O)N[C@@H](CCCCN)C(=O)NC(C)(C)C(=O)N[C@@H](CCC(N)=O)C(=O)N[C@@H](CCCNC(=N)N)C(=O)N[C@@H](C)C(=O)N[C@@H](CCC(N)=O)C(=O)N[C@@H](C)C(=O)N[C@@H](CCC(=O)O)C(=O)N[C@@H](CCCCN)C(=O)N[C@@H](CC(N)=O)C(=O)N[C@@H](CCCCN)C(=O)N[C@@H](CCCNC(=N)N)C(=O)N[C@H](C(=O)N[C@@H](CC(C)C)C(=O)N[C@@H](CCC(=O)O)C(=O)N[C@@H](CCCNC(=N)N)C(=O)N[C@H](C(N)=O)C(C)C)[C@@H](C)CC)[C@@H](C)CC)[C@@H](C)CC)C(C)C)C(C)C
EC50 [nM], 0% HSA: 0.22 nM | EC50 [nM], 0.1% HSA: 5.59 nM

B5: SEQ ID NO: 125 (peptide)
peptide: IVLSLDVPIKLK([AEEA-AEEA-γGlu-C18 diacid])QILLEQARQK[Aib]QREQAEKNKRILERV-NH2
modifications: N-terminus assumed
SMILES: CC[C@H](C)[C@H](N)C(=O)N[C@H](C(=O)N[C@@H](CC(C)C)C(=O)N[C@@H](CO)C(=O)N[C@@H](CC(C)C)C(=O)N[C@@H](CC(=O)O)C(=O)N[C@H](C(=O)N1CCC[C@H]1C(=O)N[C@H](C(=O)N[C@@H](CCCCN)C(=O)N[C@@H](CC(C)C)C(=O)N[C@@H](CCCCNC(=O)COCCOCCNC(=O)COCCOCCNC(=O)CC[C@H](NC(=O)CCCCCCCCCCCCCCCCC(=O)O)C(=O)O)C(=O)N[C@@H](CCC(N)=O)C(=O)N[C@H](C(=O)N[C@@H](CC(C)C)C(=O)N[C@@H](CC(C)C)C(=O)N[C@@H](CCC(=O)O)C(=O)N[C@@H](CCC(N)=O)C(=O)N[C@@H](C)C(=O)N[C@@H](CCCNC(=N)N)C(=O)N[C@@H](CCC(N)=O)C(=O)N[C@@H](CCCCN)C(=O)NC(C)(C)C(=O)N[C@@H](CCC(N)=O)C(=O)N[C@@H](CCCNC(=N)N)C(=O)N[C@@H](CCC(=O)O)C(=O)N[C@@H](CCC(N)=O)C(=O)N[C@@H](C)C(=O)N[C@@H](CCC(=O)O)C(=O)N[C@@H](CCCCN)C(=O)N[C@@H](CC(N)=O)C(=O)N[C@@H](CCCCN)C(=O)N[C@@H](CCCNC(=N)N)C(=O)N[C@H](C(=O)N[C@@H](CC(C)C)C(=O)N[C@@H](CCC(=O)O)C(=O)N[C@@H](CCCNC(=N)N)C(=O)N[C@H](C(N)=O)C(C)C)[C@@H](C)CC)[C@@H](C)CC)[C@@H](C)CC)C(C)C)C(C)C
EC50 [nM], 0% HSA: 0.47 nM | EC50 [nM], 0.1% HSA: 19.9 nM

B6: SEQ ID NO: 12 (peptide)
peptide: FTLSLDVPTKIK([γGlu-Palmitoyl])QKLLKQEKQRKQKQQAKTNAKILARV-NH2
modifications: N-terminus assumed
SMILES: CCCCCCCCCCCCCCCC(=O)N[C@@H](CCC(=O)NCCCC[C@H](NC(=O)[C@@H](NC(=O)[C@H](CCCCN)NC(=O)[C@@H](NC(=O)[C@@H]1CCCN1C(=O)[C@@H](NC(=O)[C@H](CC(=O)O)NC(=O)[C@H](CC(C)C)NC(=O)[C@H](CO)NC(=O)[C@H](CC(C)C)NC(=O)[C@@H](NC(=O)[C@@H](N)Cc1ccccc1)[C@@H](C)O)C(C)C)[C@@H](C)O)[C@@H](C)CC)C(=O)N[C@@H](CCC(N)=O)C(=O)N[C@@H](CCCCN)C(=O)N[C@@H](CC(C)C)C(=O)N[C@@H](CC(C)C)C(=O)N[C@@H](CCCCN)C(=O)N[C@@H](CCC(N)=O)C(=O)N[C@@H](CCC(=O)O)C(=O)N[C@@H](CCCCN)C(=O)N[C@@H](CCC(N)=O)C(=O)N[C@@H](CCCNC(=N)N)C(=O)N[C@@H](CCCCN)C(=O)N[C@@H](CCC(N)=O)C(=O)N[C@@H](CCCCN)C(=O)N[C@@H](CCC(N)=O)C(=O)N[C@@H](CCC(N)=O)C(=O)N[C@@H](C)C(=O)N[C@@H](CCCCN)C(=O)N[C@H](C(=O)N[C@@H](CC(N)=O)C(=O)N[C@@H](C)C(=O)N[C@@H](CCCCN)C(=O)N[C@H](C(=O)N[C@@H](CC(C)C)C(=O)N[C@@H](C)C(=O)N[C@@H](CCCNC(=N)N)C(=O)N[C@H](C(N)=O)C(C)C)[C@@H](C)CC)[C@@H](C)O)C(=O)O
EC50 [nM], 0% HSA: 0.09 nM
